{
  "source": "paper PMC12167477",
  "about": "“Setdb1 and Atf7IP form a hetero-trimeric complex that blocks Setdb1 nuclear export” (The Journal of Biological Chemistry, 2025)",
  "binders": {"B1": {"name": "biotinylated Avitag-MBP-Atf7IP(574-666) (domain or fragment, human, UniProt Q6VMQ6 574-666, looked up)", "chain": "EEEYEAEFQVKITAKGDINQKLQKVIQWLLEEKLCALQCAVFDKTLAELKTRVEKIECNKRHKTVLTELQAKIARLTKRFEAAKEDLKKRHEH", "modifications": "biotin on the AviTag (cultures supplemented with 40 uM biotin, birA co-expressed)", "notes": "The methods describe only the Avitag-MBP form as purified on its own; also called MBP-Atf71P; source: E. coli, co-expressed with birA and biotin, purified (MBPTrap, Superdex 200); not shown: AviTag, N-terminal, kept; MBP, N-terminal, kept"}},
  "key": {"[1]": {"biological_target": "B1", "assay": "AlphaScreen or HTRF; AlphaScreen His-Detection kit: nickel chelate acceptor beads and streptavidin donor beads; both proteins at 20 nM, or one at 20 nM and the other 0 to 20 nM; 50 mM MOPS, 50 mM CHAPS, 50 mM NaF, 100 ug/ml BSA, pH 7; room temperature; triplicates", "conditions": "both partners purified"}, "MBP-Setdb1(2-115) [2]": {"biological_target": "T1, MBP-Setdb1(2-115) (human, UniProt Q15047 2-115)", "T1 construct": "The methods list the MBP tag of the vectors as AviTag-Mbp; also called MBP-Setdb1(2-114); not shown: MBP, N-terminal, kept", "assay": "pull-down; three tagged proteins co-expressed in E. coli, complex purified sequentially by the his tag and then the strep tag; SDS-PAGE", "conditions": "partners not purified"}, "[3]": {"biological_target": "the molecule itself", "assay": "SEC; gel filtration of isolated MBP-Atf7IP(574-666) with and without Tween 20 in the buffer"}, "GST-Setdb1(2-115)": {"biological_target": "T2, GST-Setdb1(2-115) (human, UniProt Q15047 2-115)", "T2 construct": "source: E. coli, purified (GSTTrap, Superdex 200); not shown: GST, N-terminal, kept", "assay": "pull-down; 0.5 uM GST-fusion immobilised on glutathione Sepharose beads; 1.5 uM hCrm1 with or without 4.5 uM RanGTP; with or without pre-incubation with MBP-Atf7IP(574-666) (3-fold or 15-fold excess); 20 mM HEPES 7.4, 110 mM potassium acetate, 2 mM magnesium acetate, 10% glycerol, 2 mM DTT, 0.005% Tween20; Coomassie SDS-PAGE", "conditions": "both partners purified"}, "his-sumo-Setdb1(2-115)": {"biological_target": "T3, his-sumo-Setdb1(2-115) (human, UniProt Q15047 2-115)", "T3 construct": "also called his-sumo-Setdb1(2-114); source: E. coli (BL21DE3 or Rosetta2), purified (HisTrap, dialysis); not shown: His6, N-terminal, kept; SUMO, N-terminal, kept", "assay": "AlphaScreen or HTRF; AlphaScreen His-Detection kit: nickel chelate acceptor beads and streptavidin donor beads; both proteins at 20 nM, or one at 20 nM and the other 0 to 20 nM; 50 mM MOPS, 50 mM CHAPS, 50 mM NaF, 100 ug/ml BSA, pH 7; room temperature; triplicates", "conditions": "both partners purified"}, "MBP-Setdb1(2-115) [4]": {"biological_target": "T1, MBP-Setdb1(2-115)", "assay": "SEC-MALS; co-expressed and purified complex, about 400 ul at about 1 mg/ml, Superdex 200 Increase 10/300", "conditions": "both partners purified"}, "[5]": {"biological_target": "the molecule itself", "assay": "native MS; co-expressed and purified MBP-Setdb1(2-115)/his-sumo-Atf7IP(574-666) complex, 500 nM, 400 mM ammonium acetate pH 7.9, 1 mM DTT; Q Exactive UHMR; HCD fragmentation"}, "[6]": {"biological_target": "the molecule itself", "assay": "cross-linking; disulfide cross-linking of MBP-Atf7IP(574-666) with only C631, in isolation; SDS-PAGE with and without BME"}},
  "data": [
    {"binder": "his-sumo-Setdb1(Δα1-α2; residues 50-115) (domain or fragment, human, UniProt Q15047 50-115, looked up, source: E. coli, purified (HisTrap, dialysis); not shown: His6, N-terminal, kept; SUMO, N-terminal, kept) KMDCVQQRKKQLAELETWVIQKESEVAHVDQLFDDASRAVTNCESLVKDFYSKLGLQYRDSSSEDE", "values": [
      {"measurement": "binding, percent of WT", "setting": "[1]", "result": "~30 % of WT"}
    ]},
    {"binder": "Atf7IP2(297-388), his-sumo- or Strep-tagged (domain or fragment, UniProt Q5U623 297-388, looked up, Atf7IP2, coiled coil region, residues 297-388; Two differently tagged copies of one fragment, written as one molecule; in the mixed trimer with Atf7IP only the Strep-tagged copy was there; also called his-sumo-Atf7IP2(297-388); Strep-Atf7IP2(297-388); not shown: His6-SUMO (one copy) or Strep (the other copy), N-terminal, kept) MKTSEQINENICVSLERQTAFLEQVRHLIQQEIYSINYELFDKKLKELNQRIGKTECRNKHEGIADKLLAKIAKLQRRIKTVLLFQRNCLKP", "values": [
      {"measurement": "stoichiometry N", "setting": "MBP-Setdb1(2-115) [2]", "result": 2, "unit": "Atf7IP2 per Setdb1"}
    ]},
    {"binder": "his-sumo-Setdb1(Δα1; residues 35-115) (domain or fragment, human, UniProt Q15047 35-115, looked up, source: E. coli, purified (HisTrap, dialysis); not shown: His6, N-terminal, kept; SUMO, N-terminal, kept) ISMEELRHFIDEELEKMDCVQQRKKQLAELETWVIQKESEVAHVDQLFDDASRAVTNCESLVKDFYSKLGLQYRDSSSEDE", "values": [
      {"measurement": "binding, percent of WT", "setting": "[1]", "result": "~80 % of WT"}
    ]},
    {"binder": "B1", "values": [
      {"measurement": "binding result", "setting": "[3]", "result": "binds"},
      {"measurement": "binding result", "setting": "GST-Setdb1(2-115)", "result": "binds"},
      {"measurement": "binding result", "setting": "his-sumo-Setdb1(2-115)", "result": "binds"}
    ]},
    {"binder": "his-sumo-Atf7IP(574-666) (domain or fragment, human, UniProt Q6VMQ6 574-666, looked up, not shown: His6, N-terminal, kept; SUMO, N-terminal, kept) EEEYEAEFQVKITAKGDINQKLQKVIQWLLEEKLCALQCAVFDKTLAELKTRVEKIECNKRHKTVLTELQAKIARLTKRFEAAKEDLKKRHEH", "values": [
      {"measurement": "stoichiometry N", "setting": "MBP-Setdb1(2-115) [4]", "result": 2, "unit": "Atf7IP per Setdb1"},
      {"measurement": "binding result", "setting": "[5]", "result": "binds"}
    ]},
    {"binder": "MBP-Atf7IP(574-666) C608S C612S (domain or fragment, human, UniProt Q6VMQ6 574-666, looked up, The methods name the synthesised vector without the MBP tag on Atf7IP; the results call the protein MBP-Atf7IP; also called Atf7IP(C631); source: also used in isolation; not shown: MBP, N-terminal, kept) EEEYEAEFQVKITAKGDINQKLQKVIQWLLEEKLSALQSAVFDKTLAELKTRVEKIECNKRHKTVLTELQAKIARLTKRFEAAKEDLKKRHEH", "values": [
      {"measurement": "binding result", "setting": "[6]", "result": "binds"}
    ]}
  ]
}
